Experimental data taken from patent US20250034594A1, “RNA-GUIDED GENOME RECOMBINEERING AT KILOBASE SCALE” (THE BOARD OF TRUSTEES OF THE LELAND STANFORD JUNIOR …, priority 2021, published 2025).

How the values were obtained:
Assay type in all cases: cell-based
gene editing with Cas9 = experiment: Screen of 322 new SSAP proteins, gene editing activity with Cas9 (Table 5); parameters: Cas9 with SSAP activity: scale not given here
How it was run: (§1)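 Editing screen of 322 newly identified, synthesized SSAPs, each co-used with Cas9 and with dCas9.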

gene editing with dCas9 = experiment: Screen of 322 new SSAP proteins, gene editing activity with dCas9 (Table 5); parameters: dCas9 with SSAP activity: scale not given here
How it was run: as §1

[1] = system: gene editing with Cas9 and dCas9; experiment: Screen of 322 new SSAP proteins, activity across all experiments (Cas9 and dCas9, Table 5); parameters: scale not given here
How it was run: as §1

Molecule | Cas9 with SSAP activity (gene editing with Cas9) | Cas9 with SSAP activity (normalized) (gene editing with Cas9) | dCas9 with SSAP activity (gene editing with dCas9) | dCas9 with SSAP activity (normalized) (gene editing with dCas9) | Activity across all experiments [1]
SSAP_243: SEQ ID NO: 412; Nocardia puris (protein, listed as Nocardia puris) AESISSEVARQASPLAVVARYRSELAGSLPAAVRHDVDRWLMVAEMAVRRSPDLMEIVRRDQGASLMRALIECARLGHEPGSPEFYLIPRGGIVSGEESYRGIIKRILNSGEYQRVVARVVHERDRFSFDPRIDEIPDHRPAEGERGAPARAYAFAVRWDGTPSTVGEATPERIIAAKAKARGVDRKDSPWNSPTGVMYRKTAIRELASYVHTSAEPRPRPAAPTEPPAVDEVSTVYDAEVIDEVDVLDITAEPTA | −1.310 | −0.511 | −5.989 | −1.036 | −3.650
SSAP_294: SEQ ID NO: 463; Parageobacillus thermoglucosidasius (protein, listed as Parageobacillus thermoglucosidasius) AKQADLKNKLANKNSTNPTAYLKNLVYAPTVQQKFKEVLKEKAAHFLTSLISLVDSSPDLQKCNPMTIIASAMKAATLELPIDKNLGYAWIVPYKNVATFQIGYKGYIQLALRTGLYRSINVIEVYEGELRKWNRLTEELDIDEGARKSDHVIGYAGYFELTNGFIKRVYWSKEDIERHRKKFAKSDFGWENNYDAMAKKTVLRNMLSKWGILSIDMQRAYVNDIDDPEQTKEVIDVEWSEIIEEANVANSPEQQEIVFEQ | −7.102 | −2.102 | −5.929 | −1.096 | −6.515
SSAP_52: SEQ ID NO: 221 (protein) TIMDLLNDPKMKSQIQRALPNGMSAERIARIALTALRMNPQLQECSPQSFAAALMTSAQLGLEPNTPLGHAWLIPRKNHGKMEVQFELGYKGMLDLVRRSGMITAIFAEEVREKDEFEFEYGTNPYLKHKPYLGGDRGKVLFYYAVATFKDGGYAFKVMSIPEIEEARKLSQSANSPYSPWNRFYDEMAKKTVLKRLCKYLPLSIEVQRNLAQDETIRTQIEADDILDLPNENEFEVVEVEEIPGEEEKEEAKEGPFPNKALRESPTPLT | −0.544 | −0.573 | 0.163 | 0.148 | −0.190
SSAP_166: SEQ ID NO: 335; Blautia sp. OF03-15BH (protein, listed as Blautia sp.) NVKEELAQKAEITQKEVKLKKSMSISDMIRALQPEIKKALPSVVTPERFIRMALSALNTTPKLAECSQISVLAALMNAAQLGLEPNTPMGQAYLIPFNNKGKMECQFQIGYKGLLELVYRNPAIQIIQAQTVYENDYFEYELGLNSRLIHRPELEDRGEIRLFYGLFKMVNGGYGFEVMSRQEMDQYAARYSKSFASGFSPWENNYEDMAKKTMIKRVLKYAPVKIETARALINDESIKLHLSEDMSEVENETVVDGQAEEKAA | −1.338 | −0.432 | −5.849 | −0.934 | −3.593
SSAP_300: SEQ ID NO: 469; Lactobacillus sp. (protein, listed as Lactobacillus sp.) NSLSGALNSRNQAGSPTSMIKNLMRSDSIKNRFDEVMGAKAPQFMASITNLVNSNQDLQHVDAMSVVASAMVAATLDLPIDPNLGYMYIVPYRGQAQPQMGYKGYIQLALRTGQYKHINALPVYDDEVKSWNPLTEELEYESSGTSHDNQTPAGYVGYFQLINGFEKTTYWTYDQINSHRQKFSKMSSKTDPTGVWKSNFDAMALKTVLRNLISKWGIMSIEMQQAFVKDERPQEFDHETGEIQDVQEVEAEEENVAPETQGSTDKKEE | −4.466 | −0.701 | −5.916 | −1.175 | −5.191
SSAP_228: SEQ ID NO: 397; Weissella koreensis (protein, listed as Weissella koreensis) ANELVKQLKSEKVAAQFETTAGKNAAAFASEVAISVMGNKALENASLSSVVVEATKASALGLSLLPTVGEAYLVPYKGQAQFQLGYKGLVQLAMRSGQMKSFGTVKVYEGEHPRWDKYSQELHTDGDETGEVVGYYAQFTLINGFKKADYWTKSAVEEHRSRFSKSKSGPWSTDFDAMAQKTVLKSILQYAPKSSEMTRAMASEDMNGDISEGTAKPIDITPETETPKVEEANQNQQIDTNEMVDEIKEYAKETNEAPKEQTVSAADEFFK | −4.425 | −0.688 | −5.964 | −1.008 | −5.195
SSAP_188: SEQ ID NO: 357; Propionibacterium freudenreichii (protein, listed as Propionibacterium freudenreichii) TQQMPIKAQGEPTKELQQKAAVDRFNATLHQMQNEIARALPKHMTGDRFVRIVLTEVRKNPTLALCDPLTMFGSLLTAAALGLEPGLNGECWLVPRKNHGTLEAQLQVGYRGVVKLFWQNPAATYLDTGYVCERDEFRFAKGLNPILEHTPAEGDRGKVVRYYAVAGLNTGARVFDVFTPAQIKTLRGGKVGSNGDIPDPEHWMERKTALLQVLKLMPKSTQLAAVPAADGRAHTISDAQQIFGGVDPTTGEVLDAEPVEDGAA | −6.279 | −0.994 | −5.957 | −0.867 | −6.118
SSAP_112: SEQ ID NO: 281; Bacillus sp. UNC322MFChir4.1 (protein, listed as Bacillus sp.) ATNKDVKNQLANRKENKPATPEQKVEAYMTAMAPRFAEVLPKHMSMDRMSRIALTTIRTNPKLLECSVPSLMGAVMQAVQLGLEPGLLGHCYILPYKSEATFIIGYKGMIDLARRSGHIQSIYAHAVYENDEFDYELGLHPKLTHKPSFGERGEFIGAYAVAHFKDGGHQMEFMPKSEIEKRRSRSASGNSSYSPWKSDYEEMAKKTVVRYMFKYLPISIEVQSQAQHDEVVRKDITEEPEFIEMDSIEVAEASEGDGQKEFVIEE | −1.038 | −0.628 | −6.027 | −0.986 | −3.533
SSAP_306: SEQ ID NO: 475; Paenibacillus gorillae (protein, listed as Paenibacillus gorillae) LEAKHDALPSGFNAVRFVQNCKAYLPEVRNFERFNPDEIALQFLKGAILGLDFLAKECHVITEGSAARFQTDYKGEMKLAMKHSVRPLLNIYAKNVREGDVFRESVVEGRPVVSFDPLPFNNSKIIGSFAVAQFNDGGMDYESMSSTEIESIRTHYGKNPGSDTWEKSQGEMYKRTALRRLCKTIEIDFDAEQRLAFDAGSSFEFNREPRPQQQSPLNLESEVLTDEVEQG | −2.932 | −2.350 | −5.884 | −0.905 | −4.408
